For data set [1], the target named is PCV2 Rep WT (catalytically inactive) (Porcine circovirus 2 (PCV2)) (UniProt Q8BB16). Nature of the data set: fluorescence polarization. The conditions noted are these: 50 mM NaCl, 50 mM HEPES pH 8.0, 0.05% Tween-20, 1 mM DTT, 5 uM MnCl2 (SI legend: 50 uM Mn2+) or EDTA; 10 nM FAM substrate, protein from 1 uM in 1:2 dilutions ….
Data set [2] shares this target. Nature of the data set: fluorescence polarization. Particulars: 50 mM NaCl, 50 mM HEPES pH 8.0, 0.05% Tween-20, 1 mM DTT, 5 uM MnCl2 (SI legend: 50 uM Mn2+) or EDTA; 10 nM FAM substrate, protein from 1 uM in 1:2 dilutions …. The source holds these as a separate data set.

UniProt Q8BB16, sequence (Q8BB16 whole entry): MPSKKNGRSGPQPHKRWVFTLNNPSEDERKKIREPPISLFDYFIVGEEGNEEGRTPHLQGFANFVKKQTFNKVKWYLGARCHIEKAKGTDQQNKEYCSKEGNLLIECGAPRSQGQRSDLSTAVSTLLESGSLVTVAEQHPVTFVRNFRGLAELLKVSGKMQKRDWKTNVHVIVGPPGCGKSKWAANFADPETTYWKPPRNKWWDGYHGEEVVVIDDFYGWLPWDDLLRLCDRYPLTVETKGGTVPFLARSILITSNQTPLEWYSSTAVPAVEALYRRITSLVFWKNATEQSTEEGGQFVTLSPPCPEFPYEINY

Take CGTAAATATTACCGTC [HUHDNA_FAM]: the Kd is 30 nM in data set [1] and 6 nM in data set [2].

As for CGUAAAAUAUUACCGUC [HUHRNA_FAM], the Kd in data set [1] was determined as 100 nM; in data set [2], 90 nM.

Source of the values: PMC13231165.
